For one test, the target named is HLA-B*83:01. Briefly: IEDB peptide-MHC binding, purified MHC/competitive/fluorescence; filed as Kd, often an IC50 or EC50 that approximates it; ≥ and ≤ were set here for values at or beyond the usual limits of such assays.
Another test has as its target HLA-B*15:01. Described as above. As to conditions: source organism: Mycobacterium tuberculosis variant bovis BCG str. Pasteur 1173P2.
For a further test, the target named is HLA-B*45:06. The test is described as above.
Another test concerns the target HLA-B*15:42. The description is as above.
The target of a further test is HLA-B*08:01. Briefly: IEDB peptide-MHC binding, purified MHC/direct/fluorescence; filed as Kd, often an IC50 or EC50 that approximates it; ≥ and ≤ were set here for values at or beyond the usual limits of such assays. The conditions noted are these: source organism: Mycobacterium tuberculosis str. Haarlem.
Another test deals with HLA-A*11:01. Described as above. The conditions noted are these: source organism: Mycobacterium tuberculosis.
The target in test [1] is HLA-B*46:01. Described as above. As to conditions: source organism: Mycobacterium tuberculosis.
The target in test [2] is HLA-B*39:01. The description is as above. As to conditions: source organism: Mycobacterium tuberculosis str. Haarlem.
The next test addresses HLA-A*31:01. The test is described as above. As to conditions: source organism: Mycobacterium tuberculosis.
In the next test the target is HLA-B*48:01. The test is described as above. The conditions noted are these: source organism: Mycobacterium tuberculosis.
Test [3] has as its target HLA-B*18:01. Described as above. The conditions noted are these: source organism: Mycobacterium tuberculosis.
Test [4] has as its target HLA-A*69:01. Described as above.
The target in another test is HLA-A*01:01. The test is described as above. As to conditions: source organism: Mycobacterium tuberculosis.
The target of the next test is HLA-B*15:17. The test is described as above. The conditions noted are these: source organism: Mycobacterium tuberculosis.
The next test has as its target HLA-A*03:01. The test is described as above.
The target in another test is HLA-B*15:09. The test is described as above. The conditions noted are these: source organism: Mycobacterium tuberculosis str. Haarlem.
In test [5] the target is HLA-A*02:01. The test is described as above.
Another test has as its target HLA-B*08:02. The test is described as above. The conditions noted are these: source organism: Mycobacterium tuberculosis str. Haarlem.
Test [6] has as its target HLA-A*26:01. The description is as above. As to conditions: source organism: Mycobacterium tuberculosis str. Haarlem.
The next test deals with HLA-B*38:01. The test is described as above. The conditions noted are these: source organism: Mycobacterium tuberculosis str. Haarlem.
The target in test [7] is HLA-B*57:01. Described as above. The conditions noted are these: source organism: Mycobacterium tuberculosis.
A further test concerns the target HLA-B*58:01. Described as above.
The target in the next test is HLA-B*27:05. The description is as above. As to conditions: source organism: Mycobacterium tuberculosis.
The target of test [8] is HLA-B*51:01. The description is as above. The conditions noted are these: source organism: Mycobacterium tuberculosis.
The target of a further test is HLA-B*40:01. Described as above. As to conditions: source organism: Mycobacterium tuberculosis.
The target in test [9] is HLA-B*46:01. Briefly: IEDB peptide-MHC binding, purified MHC/competitive/fluorescence; filed as Kd, often an IC50 or EC50 that approximates it; ≥ and ≤ were set here for values at or beyond the usual limits of such assays. The conditions noted are these: source organism: Zaire ebolavirus.
The target in test [10] is HLA-B*39:01. Described as above. As to conditions: source organism: Zaire ebolavirus.
The next test addresses HLA-B*27:03. The test is described as above. As to conditions: source organism: Zaire ebolavirus.
Test [11] has as its target HLA-B*18:01. Described as above. As to conditions: source organism: Zaire ebolavirus.
Test [12] has as its target HLA-A*69:01. Described as above. As to conditions: source organism: Zaire ebolavirus.
Test [13] addresses HLA-A*02:01. The description is as above. As to conditions: source organism: Zaire ebolavirus.
In test [14] the target is HLA-A*26:01. The description is as above. As to conditions: source organism: Zaire ebolavirus.
For test [15], the target named is HLA-B*57:01. The test is described as above. As to conditions: source organism: Zaire ebolavirus.
Test [16] deals with HLA-B*51:01. The description is as above. The conditions noted are these: source organism: Zaire ebolavirus.
Another test concerns the target HLA-A*68:02. Briefly: IEDB peptide-MHC binding, purified MHC/direct/fluorescence; filed as Kd, often an IC50 or EC50 that approximates it; ≥ and ≤ were set here for values at or beyond the usual limits of such assays. The conditions noted are these: source organism: Zaire ebolavirus.
Another test deals with HLA-A*24:03. Described as above. As to conditions: source organism: Zaire ebolavirus.
The target of another test is HLA-A*02:19. The test is described as above. The conditions noted are these: source organism: Zaire ebolavirus.
In a further test the target is HLA-A*02:11. Described as above. The conditions noted are these: source organism: Zaire ebolavirus.
The next test addresses HLA-A*02:12. Described as above. As to conditions: source organism: Zaire ebolavirus.
The target in the next test is HLA-A*23:01. Described as above. As to conditions: source organism: Zaire ebolavirus.
Another test deals with HLA-A*02:03. The test is described as above. As to conditions: source organism: Zaire ebolavirus.
Another test addresses HLA-A*32:15. Briefly: IEDB peptide-MHC binding, purified MHC/competitive/fluorescence; filed as Kd, often an IC50 or EC50 that approximates it; ≥ and ≤ were set here for values at or beyond the usual limits of such assays. The conditions noted are these: source organism: Shewanella sp. W3-18-1.
The target of a further test is HLA-A*32:07. The test is described as above. The conditions noted are these: source organism: Shewanella sp. W3-18-1.
The target in a further test is HLA-C*05:01. Briefly: IEDB peptide-MHC binding, purified MHC/direct/fluorescence; filed as Kd, often an IC50 or EC50 that approximates it; ≥ and ≤ were set here for values at or beyond the usual limits of such assays. The conditions noted are these: source organism: Shewanella sp. W3-18-1.
The mark [17] stands for this setting: source organism: Mycobacterium tuberculosis variant bovis BCG str. Pasteur 1173P2.
[18] abbreviates: source organism: Mycobacterium tuberculosis.
The mark [19] stands for this setting: source organism: Shewanella sp. W3-18-1.
The mark [20] stands for this setting: source organism: Salmonella enterica subsp. enterica serovar Typhimurium.

As for RPRRASSPF, the Kd (usually the concentration at which binding is half-saturated) with HLA-B*83:01 (setting [17]) was 0.109 µM; in the test with HLA-B*15:01, 0.288 µM; in the test with HLA-B*45:06 (setting [17]), ≥ 5 µM; in the test with HLA-B*15:42 (setting [17]), ≥ 5 µM; with HLA-B*08:01 it was 0.036 µM; with HLA-A*11:01, ≥ 20 µM. The Kd is ≥ 20 µM with HLA-B*46:01 [1]; ≥ 20 µM with HLA-B*39:01 [2]; ≥ 20 µM in the test with HLA-A*31:01; ≥ 20 µM in the test with HLA-B*48:01; 9.95 µM with HLA-B*18:01 [3]; ≥ 20 µM with HLA-A*69:01 [4] (setting [18]). Also, the Kd with HLA-A*01:01 was ≥ 20 µM; with HLA-B*15:17 it was 0.273 µM; in the test with HLA-A*03:01 (setting [18]) it was ≥ 20 µM; with HLA-B*15:09, ≥ 20 µM; in the test with HLA-A*02:01 [5] (setting [18]), ≥ 20 µM; with HLA-B*08:02, 9.48 µM. In addition, the Kd with HLA-A*26:01 [6], in the test with HLA-B*38:01, in the test with HLA-B*57:01 [7], with HLA-B*58:01 (setting [18]), in the test with HLA-B*27:05 and in the test with HLA-B*51:01 [8] was ≥ 20 µM in each case. For the same sequence, the Kd with HLA-B*40:01 is ≥ 20 µM.

Regarding TGIVSSMHY, the Kd with HLA-B*46:01 [9], in the test with HLA-B*39:01 [10], with HLA-B*27:03, with HLA-B*18:01 [11], in the test with HLA-A*69:01 [12] and in the test with HLA-A*02:01 [13] was ≥ 20 µM in each case. Besides, the Kd with HLA-A*26:01 [14], in the test with HLA-B*57:01 [15], with HLA-B*51:01 [16], with HLA-A*68:02, in the test with HLA-A*24:03 and in the test with HLA-A*02:19 was ≥ 20 µM throughout. The Kd with HLA-A*02:11, with HLA-A*03:01 (source organism: Zaire ebolavirus), with HLA-A*02:12, with HLA-A*23:01, in the test with HLA-B*58:01 (source organism: Sudan ebolavirus - Maleo (1979)) and with HLA-A*02:03 was ≥ 20 µM in each case.

Take LMMSSPPPI: the dissociation constant (Kd) with HLA-B*83:01 (setting [19]) is ≥ 5 µM; with HLA-A*32:15, 0.137 µM; with HLA-A*32:07, 0.0508 µM; in the test with HLA-B*45:06 (setting [19]), ≥ 5 µM; in the test with HLA-B*15:42 (setting [19]), ≥ 5 µM; with HLA-C*05:01 it was ≥ 20 µM. The Kd in the test with HLA-A*69:01 [4] (setting [20]) stood at 0.174 µM; in the test with HLA-A*02:01 [5] (setting [20]) it was 0.0123 µM.

The values are drawn from the Immune Epitope Database (IEDB).
